Results taken from PMC10213629 (2023).

B1: CrcA (PA1677), His-tag removed (natural protein)
chain: MPHPLTLLQISGRGYPPAPLRQSTLLIIDAQEEYRSGALRLPGLDAAAAEIGVLVQAARASGTPIVHVRHLGIQGGLFDPQGPRGQFLPELQPEAGEKVVEKRLPNAFSGTELHDLLQNHGRLDLIVCGFMTHSSVSTTVRAAKDYGYRCTLADSACATRDIPTLNGGVLSAADLQRAEIAALGDNFAAIVAQARELL
B2: Crc (catabolite repression control protein), His-tag removed (natural protein)
chain: MRIISVNVNGIQAAAERGLLSWLQAQNADVICLQDTRASAFDLDDPSFQLDGYFLYACDAELPEQGGVALYSRLQPKAVISGLGFETADRYGRYLQADFDKVSIATLLLPSGQSGDESLNQKFKFMDDFTHYLSKQRRKRREYIYCGSLYVAHQKMDVKNWRECQQMPGFLAPERAWLDEVFGNLGYADALREVSREGDQFSWWPDSEQAEMLNLGWRFDYQVLTPGLRRFVRNAKLPRQPRFSQHAPLIVDYDWQLSI

Columns and labels:
[1] = target: B1; assay: grating-coupled interferometry; CrcA immobilised (9.5 ng/mm^2); Crc 20 μM to 156.25 nM; ES-buffer, 25°C; equilibration curve analysis
[2] = target: B1; assay: grating-coupled interferometry; CrcA immobilised by amine coupling (9.5 ng/mm^2); Crc 20 μM to 156.25 nM; ES-buffer, 25°C; heterogeneous ligand model
[3] = target: Strep-CrcA (Strep-PA1677; catabolite repression control protein antagonist) (Pseudomonas aeruginosa PAO1); assay: SEC-MALS; Strep-CrcA; experimental mass compared with the expected mass of a dimer
[4] = target: Crc (catabolite repression control protein), His-tag removed (Pseudomonas aeruginosa PAO1) (UniProt Q51380); assay: grating-coupled interferometry; Crc immobilised by amine coupling (15 pg/mm^2); CrcA 20 μM to 156.25 nM; ES-buffer, 25°C; 1:1 kinetic fit
[5] = target: B2; assay: immobilized CrcA; kd1 heterogeneous ligand
[6] = target: Crc (catabolite repression control protein), His-tag removed (Pseudomonas aeruginosa PAO1) (UniProt Q51380); assay: grating-coupled interferometry; Crc immobilised (15 pg/mm^2); CrcA 20 μM to 156.25 nM; ES-buffer, 25°C; equilibration curve analysis
[7] = target: B2; assay: immobilized CrcA; KD2 heterogeneous ligand, second site
[8] = target: B2; assay: immobilized CrcA; kd2 heterogeneous ligand, second site
[9] = target: T1, PAO1 Hfq protein, purified (Pseudomonas aeruginosa PAO1, UniProt Q9HUM0 1-82); assay: Hfq in complex with amiE6ARN RNA; kd2 heterogeneous ligand, second site
T1 chain: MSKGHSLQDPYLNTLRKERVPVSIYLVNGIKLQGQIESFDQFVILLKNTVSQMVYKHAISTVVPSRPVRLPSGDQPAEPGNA

[10] = target: B1; assay: immobilized Crc
[11] = target: T1, PAO1 Hfq protein, purified; assay: Hfq in complex with amiE6ARN RNA; kd1 heterogeneous ligand
[12] = target: T1, PAO1 Hfq protein, purified; assay: Hfq in complex with amiE6ARN RNA; KD1 heterogeneous ligand

“Crc (catabolite repression control protein), His-tag removed (from UniProt Q51380 1-259) (natural protein)” showed a Kd [1] of 7.14 µM and a KD1 [2] of 8.35 µM.

For “Strep-CrcA (Strep-PA1677; catabolite repression control protein antagonist) (natural protein)”, the stoichiometry N [3] was 2.

B1 gave a Kd [4] of 11 µM, a koff [5] of 0.653 s⁻¹ and a Kd [6] of 12 µM. The Kd [7] was 3.93 µM and the koff [8] was 0.0454 s⁻¹.

Work on B2 yielded a koff [9] of 0.00786 s⁻¹, a koff [10] of 2.45 s⁻¹ and a koff [11] of 0.374 s⁻¹. It also gave a Kd [12] of 0.402 µM.
